Laboratory results published in patent publication US20100291155A1, “ALLERGY VACCINE COMPOSITION FOR MUCOSAL ADMINISTRATION” (ALK-Abello A/S, priority 2008, published 2010).
“Also recorded” adds a separate entry of the source.

Legend:
nDer p 1 [1] = target: T1, nDer p 1 (Dermatophagoides pteronyssinus, UniProt P08176); experiment: Proteolytic activity of purified nDer p 1 pools in presence or absence of E64 (Z-LLE-AMC substrate); type: biochemical, D. pteronyssinus; conditions: for enzymatic activity of Der p 1 pool: DTT as reducing agent, absence of E64, 0.1 mM Z-LLE-AMC, 37° C.
T1 construct: Der p 1 has only been found in its mature form in the D. pteronyssinus faecal particles; from tissue; host or cells: D. pteronyssinus mite material
T1 sequence (P08176 99-320): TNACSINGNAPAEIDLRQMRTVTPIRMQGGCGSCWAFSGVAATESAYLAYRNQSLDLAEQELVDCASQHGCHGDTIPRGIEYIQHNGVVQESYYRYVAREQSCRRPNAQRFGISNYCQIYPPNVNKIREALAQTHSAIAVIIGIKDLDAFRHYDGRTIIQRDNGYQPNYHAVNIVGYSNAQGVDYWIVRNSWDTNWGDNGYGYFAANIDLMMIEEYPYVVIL
Experimental: (§1) The enzymatic activity of nDer p 1 was evaluated using the peptide substrate Z-LLE linked to the fluorescent group AMC. […] When Der p 1 is added, it cleaves the bond between AMC and the peptide sequence and the fluorescence increases considerably. Therefore the product formation was evaluated in terms of increase in fluorescence.
(§2) All activity assays were performed on a Spectra Max instrument (GeminiXS Molecular Devises) at a temperature of 37° C. The fluorescence was measured using an excitation wavelength (λex) of 350 nm and emission wavelength (λem) of 450 nm. The Spectra Max instrument was set to automix before the first read and in between reads. The enzymatic activity was measured in RFU, relative fluorescent units. Using the software SoftMax® PRO 4.3 LS, the initial velocity of the reaction (V0) was estimated from the maximal slope of the progress curve.
(§3) Stock solutions of assay buffer (50 mM Tris (Sigma), 5 mM EDTA (Fluka)) and 1 M DTT (Merck) were made once and kept at +5° C. and −20° C. respectively. DTT was kept in aliquots of 55 μl, and when necessary DTT was added to the assay buffer just before use.
(§4) The total volume applied for each well in the micro titer plate (Corning, 96-well non-binding black polystyrene plate) amounted to 200 μl. The reaction was always started by the addition of 50 μl of 0.1 mM or 1 mM substrate diluted in assay buffer, and the fluorescence was measured continuously for 20-90 minutes.
An enzymatic assay in the presence or absence of the cysteine protease specific inhibitor E64 was used in order to verify the identity of the purified protein as cysteine protease. One aliquot of nDer p 1 was pre-incubated for 1 hour at 37° C. with 25 μM E64 dissolved in assay buffer, while another aliquot was not. Afterwards the substrate was added at 0.1 mM concentration. The fluorescence was measured for 20 minutes. The concentration of nDer p 1 in the assay was 2.6 μM.

nDer p 1 [2] = target: T1, nDer p 1; type: biochemical, D. pteronyssinus
Experimental: as §1, §2, §3, §4
It was tested whether glutathione (GSH) could activate nDer p 1, and whether the activation was dose-dependent. The activity of 1.3 μM nDer p 1 was determined in the presence of different GSH concentrations of 0.5 mM, 1.0 mM, 5.0 mM, 10.0 mM and 25.0 mM. As a control, the activity was also measured in the presence of 5 mM DTT. The fluorescence was measured for 90 minutes.

nDer p 1 [3] = target: T1, nDer p 1; type: biochemical, D. pteronyssinus; remark: listed apart in the source
Experimental: as §1, §2, §3, §4
It was evaluated whether nDer p 8, as a glutathione S-transferase, could catalyse the activation of nDer p 1 by GSH. In this assay, nDer p1 was kept at 1.3 μM and the GSH concentration at 100 μM (physiological concentration in the airways). nDer p 8 was added at four different concentrations: 0.4 μM, 0.6 μM, 0.8 μM and 1.2 μM. The last two components to be added to the well were GSH quickly followed by the substrate. The reaction was followed during 90 minutes.

[4] = proteolytically active Der p 1 versus Der p 1 inactivated with E64, cited from earlier work
[5] = system: confluent airway epithelial cells; conditions: in vitro, Wan et al. 1999; cited from earlier work
[6] = 0.1 mM GSH, nDer p 8 0.4-1.2 μM

## CC(C)C[C@H](NC(=O)[C@H]1O[C@@H]1C(=O)O)C(=O)NCCCCN=C(N)N (relative stereo) [E64, L-trans-epoxysuccinyl-leucylamido(4-guanidino)butane, reference compound]
nDer p 1 [1]; 25 μM E64, pre-incubated 1 hour at 37° C., 2.6 μM nDer p 1
  inhibition of nDer p 1 proteolytic activity: completely inhibited; also recorded: entirely inhibited

## N[C@@H](CCC(=O)N[C@@H](CS)C(=O)NCC(=O)O)C(=O)O [GSH, Glutathione]
nDer p 1 [2]; 1.3 μM nDer p 1, GSH 0.5-25.0 mM, 90 minutes
  activation of nDer p 1 by GSH: dose-dependent
nDer p 1 [2]; 5.0 mM GSH
  time after which nDer p 1 activity evolves: approx. 8 minutes
nDer p 1 [2]; 10.0 mM GSH
  time after which nDer p 1 activity boosts: 6 min
nDer p 1 [2]; 25.0 mM
  time after which nDer p 1 activity increases notably: 3 min
nDer p 1 [2]; FIG. 4
  correlation between initial velocity of nDer p 1 activity and GSH concentration: approximate linear correlation
nDer p 1 [2]; GSH 0.1-0.5 mM (physiological concentrations in the airways)
  lag time of nDer p 1 activation (time required to detect enzyme activity): around 30 minutes
nDer p 1 [2]; control 5 mM DTT
  speed of nDer p 1 activation compared with DTT: slower than the activation by DTT
nDer p 1 [3]; 0.1 mM GSH, no Der p 8
  Der p 1 activity when activated by GSH: very low
  lag time of Der p 1 activation: approximately 30 minutes

## nDer p 8: glutathione S-transferase from Dermaphagoides pteronyssinus, 25589 Da, 219 amino acids
nDer p 1 [3]; 0.4 μM nDer p 8, 0.1 mM GSH
  time until activity differentiated from the test without nDer p 8: over 30 minutes
nDer p 1 [3]; 1.2 μM Der p 8, 0.1 mM GSH
  time after which activity increased: approximately 8 minutes
nDer p 1 [3]; 0.1 mM GSH, FIG. 6
  velocity of the reaction at the end of the assay versus nDer p 8 concentration: increases significantly
nDer p 1 [3]; [6]
  effect of Der p 8 on Der p 1 activity (activation by GSH): higher; also recorded: enhances the activation
  effect of Der p 8 on lag time of Der p 1 activation: shorter

B1: nDer p 1: major house dust mite allergen, a 25371 Da papain-like cysteine protease purified from D. pteronyssinus (protein, UniProt P08176 99-320, looked up)
Peptidase 1: TNACSINGNAPAEIDLRQMRTVTPIRMQGGCGSCWAFSGVAATESAYLAYRNQSLDLAEQELVDCASQHGCHGDTIPRGIEYIQHNGVVQESYYRYVAREQSCRRPNAQRFGISNYCQIYPPNVNKIREALAQTHSAIAVIIGIKDLDAFRHYDGRTIIQRDNGYQPNYHAVNIVGYSNAQGVDYWIVRNSWDTNWGDNGYGYFAANIDLMMIEEYPYVVIL
[4]; mice
  lung inflammation: notably higher
[4]; sensitized mice, intranasal
  total IgE level in the circulation: significantly higher
nDer p 1 [2]; no GSH
  nDer p 1 activity when GSH is absent: no activity
[5]
  effect on intercellular tight junctions: causes disruption of intercellular tight junctions
nDer p 1 [3]; 1.3 μM nDer p 1, substrate present, no reducing agent
  Der p 1 activity alone: no activity

B2: nDer p 1 pool 1: first flow-through peak of nDer p 1 from the SBTI-agarose column (protein, UniProt P08176 99-320, looked up)
Peptidase 1: TNACSINGNAPAEIDLRQMRTVTPIRMQGGCGSCWAFSGVAATESAYLAYRNQSLDLAEQELVDCASQHGCHGDTIPRGIEYIQHNGVVQESYYRYVAREQSCRRPNAQRFGISNYCQIYPPNVNKIREALAQTHSAIAVIIGIKDLDAFRHYDGRTIIQRDNGYQPNYHAVNIVGYSNAQGVDYWIVRNSWDTNWGDNGYGYFAANIDLMMIEEYPYVVIL
modifications: SBTI-agarose flow-through pool 1
nDer p 1 [1]
  enzymatic activity of Der p 1 pool: there was activity
nDer p 1 [1]; listed as first pool
  enzymatic activity of Der p 1 pool: clear activity

B3: Pool 2: second flow-through peak of nDer p 1 from the SBTI-agarose column (protein, UniProt P08176 99-320, looked up)
Peptidase 1: TNACSINGNAPAEIDLRQMRTVTPIRMQGGCGSCWAFSGVAATESAYLAYRNQSLDLAEQELVDCASQHGCHGDTIPRGIEYIQHNGVVQESYYRYVAREQSCRRPNAQRFGISNYCQIYPPNVNKIREALAQTHSAIAVIIGIKDLDAFRHYDGRTIIQRDNGYQPNYHAVNIVGYSNAQGVDYWIVRNSWDTNWGDNGYGYFAANIDLMMIEEYPYVVIL
modifications: SBTI-agarose flow-through pool 2
nDer p 1 [1]
  enzymatic activity of Der p 1 pool: did not show any activity
nDer p 1 [1]; listed as second pool
  enzymatic activity of Der p 1 pool: did not show any significant activity
